The values below come from paper PMC6182153 (Nucleic Acids Research, 2018).

B1: Streptococcus pyogenes type II-A Csn2 (natural protein, UniProt Q99ZV9 1-220, looked up)
chain: MNLNFSLLDEPIPLRGGTILVLEDVCVFSKIVQYCYQYEEDSELKFFDHKMKTIKESEIMLVTDILGFDVNSSTILKLIHADLESQFNEKPEVKSMIDKLVATITELIVFECLENELDLEYDEITILELIKSLGVKVETQSDTIFEKCLEILQIFKYLTKKKLLIFVNSGAFLTKDEVASLQEYISLTNLTVLFLEPRELYDFPQYILDEDYFLITKNMV
B2: N-terminal (His)6-MBP-tagged full-length Streptococcus pyogenes type II-A Cas2 (natural protein, UniProt Q99ZW0 1-113, looked up)
chain: MSYRYMRMILMFDMPTDTAEERKAYRKFRKFLLSEGFIMHQFSIYSKLLLNNTANNAMIGRLREHNPNKGNITLLTVTEKQFARMIYLHGERNNCIANSDERLVFLGEAFDES
B3: Cas1-(His)6-MBP-Cas2 complex (complex, Streptococcus pyogenes)
chain 1: MAGWRTVVVNTHSKLSYKNNHLIFKDAYKTELIHLSEIDILLLETTDIVLSTMLVKRLVDENVLVIFCDDKRLPTAMLMPFYGRHDSSLQLGKQMSWSETVKSQVWTTIIAQKILNQSCYLGACSYFEKSQSIMDLYHGLENFDPSNREGHAARIYFNTLFGNDFSRDLEHPINAGLDYGYTLLLSMFAREVVVSGCMTQFGLKHANQFNQFNFASDIMEPFRPLVDKIVYENRNQPFPKIKRELFTLFSDTFSYNGKEMYLTNIISDYTKKVVKALNNEGKGVPEFRI
chain 2: B2 chain

Assay [1] has as its target B3. As to the kind of experiment: ITC. In general terms: In ITC the heat of successive injections is recorded.
Assay [2] deals with Streptococcus pyogenes type II-A Cas9 with a C-terminal (His)6 tag (Streptococcus pyogenes, UniProt Q99ZW2 1-1368). In words: SPR.
Assay [3] concerns the target T1, Streptococcus pyogenes type II-A Cas1 with a C-terminal (His)6 tag (Streptococcus pyogenes, UniProt Q99ZW1 1-289).
T1 sequence (looked up): B3 chain 1
In words: ITC.

Assay [4] deals with B1. As to the kind of experiment: ITC.

Streptococcus pyogenes type II-A Cas9 with a C-terminal (His)6 tag, sequence (Q99ZW2 whole entry): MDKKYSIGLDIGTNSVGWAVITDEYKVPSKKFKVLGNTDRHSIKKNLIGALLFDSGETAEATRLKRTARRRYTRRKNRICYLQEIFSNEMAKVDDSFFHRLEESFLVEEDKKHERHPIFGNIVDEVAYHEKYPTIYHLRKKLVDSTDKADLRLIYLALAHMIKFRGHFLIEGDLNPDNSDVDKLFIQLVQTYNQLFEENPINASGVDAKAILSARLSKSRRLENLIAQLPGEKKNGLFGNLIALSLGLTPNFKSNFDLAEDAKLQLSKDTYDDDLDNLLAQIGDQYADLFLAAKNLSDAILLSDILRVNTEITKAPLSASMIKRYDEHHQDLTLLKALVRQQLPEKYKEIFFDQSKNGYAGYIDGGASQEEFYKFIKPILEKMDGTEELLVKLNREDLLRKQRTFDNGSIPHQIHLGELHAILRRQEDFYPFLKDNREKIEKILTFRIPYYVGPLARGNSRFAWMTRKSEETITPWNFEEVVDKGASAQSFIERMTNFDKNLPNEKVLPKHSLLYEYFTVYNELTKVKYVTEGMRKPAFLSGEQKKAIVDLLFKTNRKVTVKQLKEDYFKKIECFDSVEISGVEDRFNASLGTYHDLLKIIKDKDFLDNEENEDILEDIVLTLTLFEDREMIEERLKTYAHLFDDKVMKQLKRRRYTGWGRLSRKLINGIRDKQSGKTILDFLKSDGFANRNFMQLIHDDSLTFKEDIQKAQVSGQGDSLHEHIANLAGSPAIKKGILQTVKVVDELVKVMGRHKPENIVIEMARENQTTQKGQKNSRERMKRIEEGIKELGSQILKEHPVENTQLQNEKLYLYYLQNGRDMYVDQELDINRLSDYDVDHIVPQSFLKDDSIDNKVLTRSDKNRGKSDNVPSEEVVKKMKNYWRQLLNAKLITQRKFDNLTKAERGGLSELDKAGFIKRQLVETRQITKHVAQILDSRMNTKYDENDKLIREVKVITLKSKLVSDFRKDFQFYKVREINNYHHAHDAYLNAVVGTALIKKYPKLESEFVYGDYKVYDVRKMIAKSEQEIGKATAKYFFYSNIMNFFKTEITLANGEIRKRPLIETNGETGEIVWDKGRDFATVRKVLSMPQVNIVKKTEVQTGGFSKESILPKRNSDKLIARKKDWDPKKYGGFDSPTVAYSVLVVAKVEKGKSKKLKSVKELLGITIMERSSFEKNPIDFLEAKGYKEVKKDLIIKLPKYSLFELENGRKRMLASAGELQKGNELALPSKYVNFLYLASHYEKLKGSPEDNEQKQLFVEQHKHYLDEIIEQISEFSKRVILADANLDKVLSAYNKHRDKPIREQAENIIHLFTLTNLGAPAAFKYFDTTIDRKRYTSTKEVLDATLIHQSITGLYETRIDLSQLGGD

For B1, the Kd in assay [1] was determined as 520 nM; in assay [2], 110 nM.

As to B2, in assay [3], the Kd turned out to be 240 nM and the “stoichiometry N” value was 0.44 (His)6-MBP-Cas2 per Cas1.

Take B3: the “stoichiometry N” value in assay [4] was 2.1 Cas1–(His)6-MBP-Cas2 complex per Csn2 tetramer.

One may read the Kd as a measure of binding affinity in units of concentration. The low end stands for higher affinity, the high end for lower affinity.
